Source: the supplement of paper PMC12042874
± gives the uncertainty stated by the source.

Experiment: amyloid nucleation score (Sup35N fusion, yeast selection) (log enrichment); library NNK3; higher = more nucleation; inactive = no reads after selection
Procedure, shortened: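 On medium lacking adenine and uracil, psi-negative yeast expressing peptides of 20 random codons fused to Sup35N were grown 7 days at 30°C after a 24-hour induction with 100 μM copper sulfate. Illumina sequencing of input and output plasmid inserts gave the reads, and sequences under 100 input reads were excluded. The nucleation score is the DiMSum log enrichment of output over input reads, centred on the mode score of non-aggregating sequences.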

Row | Substance | amyloid nucleation score
1 | RTKKY | inactive
2 | RTLAVSIRNQWPYIGLARDT | inactive
3 | RTPPLRTQLESKSIFKEMAR | inactive
4 | RTSYNTFGGFYTNGWTLILR | inactive
5 | RTTAK | inactive
6 | RTYLDYGVNALLCPLTWGFS | -0.071 ± 0.73
7 | RVACFQIHGK | inactive
8 | RVAFSMESTPWSMFTSRTAE | inactive
9 | RVDPTSRMSGIYHWILT | inactive
10 | RVFGGEIRLSRTCVVM | 1.27 ± 0.17
11 | RVFHP | inactive
12 | RVFYCNL | 1.6 ± 0.059
13 | RVGAVMVEGRFLYHA | 0.522 ± 0.38
14 | RVMCTYTRYLWFKFISLMMV | inactive
15 | RVMMSAACHLILCWNWPKWK | inactive
16 | RVNRSLGIVSIECRWVVIRG | inactive
17 | RVRNDYLPDRHWFSKHRGTK | inactive
18 | RVRQTFCIW | 1.75 ± 0.11
19 | RVRRGSHCNTFKKSLRLRCA | inactive
20 | RVSGEMFASSL | inactive
21 | RVSSGSIVTRQHDLN | inactive
22 | RVSWGARVHIWCSLDLVCRF | inactive
23 | RVTDLFRRLASNYILSSTTA | inactive
24 | RVTDLRYIKMFVCIILCTGL | inactive

Row | Substance | amyloid nucleation score
25 | RVTIVPTKHHLML | inactive
26 | RVVNFFVGVNTNEAMFKRSV | 2.71 ± 0.067
27 | RVVYL | -0.667 ± 1.8
28 | RVYMPAAKSINYEPNITRM | inactive
29 | RVYVAWTTCSADKKNSNIMQ | 0.939 ± 0.12
30 | RWAELTEQTCS | inactive
31 | RWCVM | 0.14 ± 0.56
32 | RWIFLITILGVLNT | inactive
33 | RWLVT | inactive
34 | RWNGFVVNTFINTLGRLTKC | -0.578 ± 1
35 | RWWTCSQSNSGVIFEQIYQT | inactive
36 | RYCNASY | inactive
37 | RYFSFELKLMLISELYVMAV | inactive
38 | RYFVT | inactive
39 | RYGIFMEHEIMYHLNPDGFY | inactive
40 | RYKTMRRVTFKHSLNKKWVK | inactive
41 | RYNPFRIQELSMLFVLERTL | 0.014 ± 0.71
42 | RYSESLMFRFKWDDYYRGRV | -0.307 ± 0.88
43 | RYSRSKIG | inactive
44 | RYTGLMTKLASYYNKISICN | inactive
45 | RYTVSGTLSAYF | -0.112 ± 0.37
46 | RYYGSFVEPRSFSRN | inactive
47 | SAAGKQLKSRFIGRR | inactive
48 | SAASYLTHDVN | inactive

Row | Substance | amyloid nucleation score
49 | SACECAPTTSRIRPGSSATR | inactive
50 | SADLFVSEYKGIRMTIGNVF | inactive
51 | SADNLDKFRLEMPVSLVRLN | inactive
52 | SAGIIFCMKSLVFSFLFITL | inactive
53 | SAIKYPLSRRCMWAGSSLLG | inactive
54 | SAIYLYKYCPSNIITRTLVP | inactive
55 | SALLKWYRYTSAWSGNDVAA | inactive
56 | SALVLPRSVSVDLIGVWDFK | inactive
57 | SANSQYDI | inactive
58 | SANYNSNFR | inactive
59 | SAPKWGGTYDRVCTISNFTV | inactive
60 | SAQPESY | inactive
61 | SARISNAVNDSFTGKTMYNK | inactive
62 | SARYWESDRLALIRCHLELR | inactive
63 | SCASAFKKVLVCSNCSGRFS | -0.133 ± 0.66
64 | SCCGRKMRPGRFEIIDKFCI | 0.523 ± 0.24
65 | SCDNYVVLTHEFVLSHSKSL | 1.01 ± 0.14
66 | SCFCMKLSLFYGAIN | 0.675 ± 0.51
67 | SCGACLKEGRSG | inactive
68 | SCGYTLWLYRCEIQRRV | inactive
69 | SCHFYTML | 0.237 ± 0.65
70 | SCKRPVTVWACDQVRYDRFP | inactive
71 | SCKVVPCYHVDDMVEL | inactive
72 | SCTRIVY | inactive

Row | Substance | amyloid nucleation score
73 | SCWRNLYSFLRKGSYSRCM | inactive
74 | SCYIEWMVFGSYPL | inactive
75 | SDGVGQLDSDVHSGGGDNRQ | inactive
76 | SDIMNDH | inactive
77 | SDLSCSELEYSHGTNTDWVR | inactive
78 | SDSGLKKV | inactive
79 | SDTLYFVCSVTWQRFYKMID | inactive
80 | SEAPSSR | inactive
81 | SEGDLKYVW | inactive
82 | SEHDDGMVSPKTHTVGSYTC | inactive
83 | SEHMNGWHHNLTQCEENFRN | inactive
84 | SEIKYSYSYMRFLNCTETSN | inactive
85 | SEIVSKVITLQGNICFFGMG | inactive
86 | SEKPIFSHPNLIYENGIGWI | inactive
87 | SELHK | inactive
88 | SEMLFIDQLCSSSVSKYTVI | inactive
89 | SEPLYSVVLSDMDELWHCL | inactive
90 | SESSNTELLSVLYIYAVWYL | inactive
91 | SETKVIGQLRKTSNSEAHNA | 0.422 ± 0.67
92 | SEVRSLKHVGLCIQSMGSAL | inactive
93 | SEYMNLYTVTTHRTPS | inactive
94 | SFAGYRQIGRQGVWVIQVRH | inactive
95 | SFCFSNDVA | inactive
96 | SFDSLVISDTVSRDRCLQII | inactive

Row | Substance | amyloid nucleation score
97 | SFELVQWDS | inactive
98 | SFFEYLPTQPTR | inactive
99 | SFFLDILRVWYYNVPNVPAR | inactive
100 | SFFPIPIWCD | inactive
101 | SFFTGKAKGFYRQALRTYYR | -0.093 ± 0.59
102 | SFIIVILYGDHALYFTYEAV | inactive
103 | SFIIYCPVKKPQIVFHRLPS | 2.36 ± 0.056
104 | SFIVETVDQDVLG | inactive
105 | SFLDMIRCDINLIYKRHRLG | inactive
106 | SFLSWVKYWERSCPDHSIWF | inactive
107 | SFLVSFTGVMLEFNCTCHLA | inactive
108 | SFPLPS | inactive
109 | SFPWSCPASYSYQGCWWERD | inactive
110 | SFQFMFSRSSNRDFCILIQR | inactive
111 | SFRFYVERL | inactive
112 | SFRYAYWLSNNCH | 0.378 ± 0.4
113 | SFSRPVHSWAGHY | inactive
114 | SFVHGKLILKFRSVNASRQS | inactive
115 | SFVMGSAANL | inactive
116 | SFVVN | inactive
117 | SFWTMGNS | inactive
118 | SFYIVVRWMYIRFVDQYLIY | inactive
119 | SFYRMRVIHSLDYAKVKSTL | 0.772 ± 0.2
120 | SFYSNGKLLVILFATMMD | inactive

Row | Substance | amyloid nucleation score
121 | SGAFYAHHHLSRLLTDEDIS | inactive
122 | SGCGLMQNGMSCLIEFTVAK | inactive
123 | SGFDGTPFVLLSSDMFSNIG | inactive
124 | SGFFSVAGIGWYTIYFCIYR | inactive
125 | SGHSAFGKKGLRGM | inactive
126 | SGKSFNVTGLPCMAWCRATD | inactive
127 | SGLACRYCTMVGCNLNYNYW | 2.58 ± 0.055
128 | SGLKTFLEMSLHLCVLLARA | inactive
129 | SGLKVCYNYEDGRMVSLGYH | inactive
130 | SGLWW | inactive
131 | SGSKKCAFRHVRIHFRLTAG | inactive
132 | SGSLGFYTP | inactive
133 | SGTSFISTKFSISLSIWLTA | inactive
134 | SGVWTF | inactive
135 | SHIVFM | inactive
136 | SHNRCVEWFKWIF | 0.885 ± 0.09
137 | SHSAFEGKVC | inactive
138 | SHSVYIFFVSTFVGSLWSLP | inactive
139 | SHVKYNNMW | inactive
140 | SHVWFDRGLIETEMSAHRY | inactive
141 | SIDNLSPRPTWSGIMFSHCL | inactive
142 | SIEMRLCQDWTQLESLT | -0.252 ± 0.66
143 | SIESPSNIMS | inactive
144 | SIGNAVYMIVGITGVRRRIY | inactive

Row | Substance | amyloid nucleation score
145 | SIGPVCIRTQSRPQITLRMM | inactive
146 | SIGVRTRLKLCC | inactive
147 | SILLVFHFKANVCLVFT | inactive
148 | SILYD | inactive
149 | SINSLFAESGLMLTFRMSSE | inactive
150 | SIPPRMRCFLGCFWSISWDA | inactive
151 | SIPWLIVINTSHLLVIFNAI | inactive
152 | SISIFHNCF | 2.66 ± 0.063
153 | SISSEALVFYFRIAGTVIKR | inactive
154 | SISSYMD | inactive
155 | SITRWFHTVMSIFKFYFEFD | inactive
156 | SITSFDFLINRVSMPSYNCG | inactive
157 | SITWET | inactive
158 | SIWWYNLVVI | inactive
159 | SKAMWLSLM | inactive
160 | SKCVGFIMNFLISSDNEDSN | 2.27 ± 0.053
161 | SKFFLPQTEFPQKGLTPITA | inactive
162 | SKFLVNGAGLDELDVLVCLL | inactive
